Consider eleven variants from the supplement of paper PMC7125110.

± gives the standard error. For part of these data: Fewer inactive variants are shown than the library holds.

B1: glmS ribozyme (parent)
chain: AUAAAAGCGCCAGAACUACAGAAAUGUAGUUGACGAGGAGGAGGUUUAUCGAAUUUUCGGCGGAUGCCUCCAAA

Holding throughout (conditions): with glucosamine-6-phosphate
In data set [1] the parent is B1. Description: kcat; higher = faster cleavage; RNA array. The method, boiled down: (§1)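 Glucosamine-6-phosphate in HEPES/KCl/Mg(OAc)2 buffer, at 40 μM to 10 mM, was flowed over barcoded ribozyme variants transcribed in situ by E. coli RNA polymerase on sequenced MiSeq chips. Tracking was through a hybridised Cy3 probe at 37 °C. kobs, kcat and KM came from exponential decay fits and weighted Michaelis–Menten fits of normalised per-tile medians.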

Data set [2] covers variants of B1. Description: self-cleavage kobs at 40 uM GlcN6P; higher = faster cleavage; RNA array. The method, boiled down:
as §1

Data set [3] covers variants of B1. Description: self-cleavage kobs at 640 uM GlcN6P; higher = faster cleavage; RNA array. The method, boiled down:
as §1

Data set [4] covers variants of B1. Description: self-cleavage kobs at 160 uM GlcN6P; higher = faster cleavage; RNA array. The method, boiled down:
as §1

Variants of B1 are the subject of data set [5]. Nature of the data set: self-cleavage kobs at 2500 uM GlcN6P; higher = faster cleavage; RNA array. In short, it runs like this:
as §1

In data set [6] the parent is B1. Description: self-cleavage kobs at 10000 uM GlcN6P; higher = faster cleavage; RNA array. In short, it runs like this: as §1
In data set [7] the parent is B1. Description: KM; higher = weaker cofactor use; RNA array. The method, boiled down:
as §1

In the case of AUAAAAGCGCCAGAACUACAGAAAUGUAGUUGACGUGAAGGAGGUUUAUCGAAUUUUCGGCGGAUGCCUCCAAA, in the data set with glucosamine-6-phosphate [1], the kcat was under 1e-05 s⁻¹.
In the case of AUAAAAGCGCCAGAACUACAGAAAUGUACUUGACGAGGAGGAGGUUUAGCGAAUUUUCGGCGGAUGCCUCCAAA, in the data set with glucosamine-6-phosphate [1], the kcat is 1.82e-05 ± 5.3e-06 s⁻¹. For the same variant, the “self-cleavage kobs at 40 uM GlcN6P” value with glucosamine-6-phosphate [2] was under 1e-05 s⁻¹.
In the case of AUAAAAGCGCCAGAACUACAGAAAUGUAGUUGACGAGGAGGAGGUGUAUCGAAUUUUCUGCGGAUGCCUCCAAA, the kcat with glucosamine-6-phosphate [1] is under 1e-05 s⁻¹. Further, the “self-cleavage kobs at 40 uM GlcN6P” value with glucosamine-6-phosphate [2] was under 1e-05 s⁻¹. Further, the “self-cleavage kobs at 640 uM GlcN6P” value in the data set with glucosamine-6-phosphate [3] is under 1e-05 s⁻¹.
Turning to AUAAAAGCGCCAGAACUACAGAAAUGUAGUAAACGAGGAGGAGGUUUAUCGAAUUUUCGGCGGAUGCCUCCAAA, in the data set with glucosamine-6-phosphate [1], the kcat came to 0.00184 ± 0.00083 s⁻¹. Also, the “self-cleavage kobs at 160 uM GlcN6P” value in the data set with glucosamine-6-phosphate [4] was 6.66e-05 ± 1.2e-05 s⁻¹. Further, in the data set with glucosamine-6-phosphate [3], the “self-cleavage kobs at 640 uM GlcN6P” value was determined as 0.000222 ± 3.2e-05 s⁻¹. The “self-cleavage kobs at 2500 uM GlcN6P” value in the data set with glucosamine-6-phosphate [5] was 0.000381 ± 7.7e-05 s⁻¹. Further, the “self-cleavage kobs at 10000 uM GlcN6P” value with glucosamine-6-phosphate [6] worked out at 0.0014 ± 0.00017 s⁻¹.
On to AUAAAAGCGCCAGAACUACAGAAAUGUAGUUAACGAGGAGGAGGGUUAUCGAAUUUUCGGCGGAUGCCUCCAAA, for which, in the data set with glucosamine-6-phosphate [1], the kcat amounted to 0.000591 ± 0.00017 s⁻¹. Also, in the data set with glucosamine-6-phosphate [3], the “self-cleavage kobs at 640 uM GlcN6P” value was determined as 0.000212 ± 4.3e-05 s⁻¹. In the data set with glucosamine-6-phosphate [5], the “self-cleavage kobs at 2500 uM GlcN6P” value worked out at 0.000204 ± 5.3e-05 s⁻¹. The “self-cleavage kobs at 10000 uM GlcN6P” value with glucosamine-6-phosphate [6] stood at 0.000488 ± 5.2e-05 s⁻¹.
With AUAAAAGCGCCAGAACUACAGAAAUGUAGUUGACGAGGAGGAGGUUUAUCGAAUUUGGGGCGGAUGCCUCCAAA, the kcat in the data set with glucosamine-6-phosphate [1] was found to be 3.94e-05 ± 1.6e-05 s⁻¹. Also, in the data set with glucosamine-6-phosphate [3], the “self-cleavage kobs at 640 uM GlcN6P” value came to 7.15e-05 ± 2.3e-05 s⁻¹. Further, the “self-cleavage kobs at 2500 uM GlcN6P” value with glucosamine-6-phosphate [5] turned out to be 5.55e-05 ± 2e-05 s⁻¹.
As for AUAAAAGCGCCAGAACUACAGAAAUGUAGUUGACGAGGAGGAGGUUUAUCGAAUUUUCGACGCAUGCCUCCAAA, the kcat in the data set with glucosamine-6-phosphate [1] is under 1e-05 s⁻¹. For the same variant, the “self-cleavage kobs at 160 uM GlcN6P” value in the data set with glucosamine-6-phosphate [4] is under 1e-05 s⁻¹. For the same variant, the “self-cleavage kobs at 2500 uM GlcN6P” value with glucosamine-6-phosphate [5] was under 1e-05 s⁻¹. Further, in the data set with glucosamine-6-phosphate [6], the “self-cleavage kobs at 10000 uM GlcN6P” value was under 1e-05 s⁻¹.
In the case of AUAAAAGCGCCAGAACUACAGAAAUGUAGUUGACGAGGAGGAGGUUUUUCGAAGUUUCGGCGGAUGCCUCCAAA, the kcat with glucosamine-6-phosphate [1] came to 0.000434 ± 0.00011 s⁻¹. Moreover, the “self-cleavage kobs at 160 uM GlcN6P” value with glucosamine-6-phosphate [4] came out at 6.29e-05 ± 1.9e-05 s⁻¹. In addition, the “self-cleavage kobs at 640 uM GlcN6P” value with glucosamine-6-phosphate [3] came to 8.39e-05 ± 4.1e-05 s⁻¹. The “self-cleavage kobs at 2500 uM GlcN6P” value in the data set with glucosamine-6-phosphate [5] amounted to 0.000261 ± 0.0001 s⁻¹. In addition, the “self-cleavage kobs at 10000 uM GlcN6P” value with glucosamine-6-phosphate [6] amounted to 0.000397 ± 9.1e-05 s⁻¹.
As to AUAAAAGCGCCAGAACUACAGAAAUGUAGUUGACGAGGAGGAGGUUUAUCGAAUUUUUGGCGGAUGCCUACAAA, in the data set with glucosamine-6-phosphate [1], the kcat stood at 2.29e-05 ± 6.9e-06 s⁻¹. Further, the “self-cleavage kobs at 640 uM GlcN6P” value with glucosamine-6-phosphate [3] stood at 3.84e-05 ± 1.4e-05 s⁻¹.
Take AUAAAAGCGCCAGAACUACAGAAAUGUAGUUGACGACGAGGAGGUUUAUCGAAUUUUCGGCGGAUACCUCCAAA: in the data set with glucosamine-6-phosphate [1], the kcat was 3.43e-05 ± 7.8e-06 s⁻¹. In the data set with glucosamine-6-phosphate [2], the “self-cleavage kobs at 40 uM GlcN6P” value is under 1e-05 s⁻¹. For the same variant, in the data set with glucosamine-6-phosphate [5], the “self-cleavage kobs at 2500 uM GlcN6P” value amounted to 3.43e-05 ± 1.5e-05 s⁻¹.
With AUAAAAGCGCCAGAAAUACAGAAAUGUAGUUGACGAGGAGGAGGUUUAUCGAAUUUUCGGCGGAUGCCUCCAAA, in the data set with glucosamine-6-phosphate [1], the kcat was found to be 0.00334 ± 0.00087 s⁻¹. The KM with glucosamine-6-phosphate [7] is 2630 ± 840 µM. Also, the “self-cleavage kobs at 40 uM GlcN6P” value in the data set with glucosamine-6-phosphate [2] was found to be 6.14e-05 ± 1.3e-06 s⁻¹. Further, in the data set with glucosamine-6-phosphate [4], the “self-cleavage kobs at 160 uM GlcN6P” value stood at 0.000152 ± 5e-06 s⁻¹. Also, in the data set with glucosamine-6-phosphate [3], the “self-cleavage kobs at 640 uM GlcN6P” value turned out to be 0.000602 ± 3.1e-05 s⁻¹. Besides, in the data set with glucosamine-6-phosphate [5], the “self-cleavage kobs at 2500 uM GlcN6P” value was 0.0017 ± 7.8e-05 s⁻¹. In addition, the “self-cleavage kobs at 10000 uM GlcN6P” value in the data set with glucosamine-6-phosphate [6] stood at 0.00269 ± 8.5e-05 s⁻¹.

As usually defined, the kcat is the number of substrate molecules converted per active site and unit of time at saturation. In general, KM refers to the concentration of substrate that gives half-maximal velocity.
